The results in this text go back to patent US20020026033A1 (BOARD OF REGENTS OF THE UNIVERSITY OF OKLAHOMA, published 2002).

This experiment addresses T1, recombinant soluble P-selectin (sPS) (UniProt P16109 42-771, limits assumed).
T1 construct: Neither the residues nor the species are stated
T1 sequence (looked up): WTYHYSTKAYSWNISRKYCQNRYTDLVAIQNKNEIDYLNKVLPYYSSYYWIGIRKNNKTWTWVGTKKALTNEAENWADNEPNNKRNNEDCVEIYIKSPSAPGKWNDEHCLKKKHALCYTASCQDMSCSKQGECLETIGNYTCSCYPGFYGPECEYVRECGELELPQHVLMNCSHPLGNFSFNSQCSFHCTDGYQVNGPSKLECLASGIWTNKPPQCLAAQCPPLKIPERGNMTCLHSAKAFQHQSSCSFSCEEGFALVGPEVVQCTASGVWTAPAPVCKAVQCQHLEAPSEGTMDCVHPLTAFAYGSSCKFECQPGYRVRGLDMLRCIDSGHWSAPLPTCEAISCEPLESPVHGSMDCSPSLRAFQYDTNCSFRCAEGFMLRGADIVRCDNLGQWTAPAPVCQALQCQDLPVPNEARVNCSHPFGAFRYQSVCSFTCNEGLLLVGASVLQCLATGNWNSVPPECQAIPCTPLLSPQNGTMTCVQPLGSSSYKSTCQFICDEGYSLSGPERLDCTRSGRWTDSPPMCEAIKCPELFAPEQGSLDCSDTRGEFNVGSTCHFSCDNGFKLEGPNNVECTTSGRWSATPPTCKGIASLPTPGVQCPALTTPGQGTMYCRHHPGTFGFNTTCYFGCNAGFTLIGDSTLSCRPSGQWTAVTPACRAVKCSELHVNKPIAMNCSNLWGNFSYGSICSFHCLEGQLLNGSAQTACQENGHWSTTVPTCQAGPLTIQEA
Put plainly: equilibrium gel filtration; fluid-phase sPS (25-1000 pmol) on columns equilibrated with 35SO3-GSP-6 in Ca2+-containing buffer. On the procedure:
Equilibrium gel filtration experiments were conducted in a Sephadex G-75 column (0.5×10 cm, 2 ml) equilibrated with 4 ml of 20 mM MOPS, pH 7.5, containing 150 mM NaCl, 2 mM CaCl₂, 2 mM MgCl₂, and 0.02% NaN₃ (buffer A), and ³⁵SO₃-GSP-6 (10,000 cpm/ml, specific activity 1700 cpm/pmol). Different amounts of soluble P-selectin (sPS) (25-1000 pmol) (Ushiyama et al., J. Biol. Chem., 268:15229-15237, 1993) were preincubated for 30-60 min in 120 μl of buffer A containing ³⁵SO₃-GSP-6 and applied to the column. Samples were eluted with buffer A (including ³⁵SO₃-GSP-6), and 140 μl fractions were collected at a flow rate of 70 μl/min. Radioactivity in the fractions was determined by liquid scintillation counting. Control experiments to test inhibitors of binding between sPS and GSP-6 were performed using 400 pmol of sPS and 5,000 cpm/ml of ³⁵SO₃-GSP-6. The EDTA concentration was 1 mM in 20 mM MOPS, pH 7.5, 150 mM NaCl, 0.02% NaN₃. Anti-P-selectin monoclonal antibodies (G1 and S12) (800 pmol each) were preincubated for 30 min with sPS in buffer A before ³⁵SO₃-GSP-6 was added. Elution was performed by using buffer A with ³⁵SO₃-GSP-6.
The dissociation constant (Kd) for binding of GSP-6 to soluble sPS was determined using an equilibrium gel filtration technique. […]
On the technique in general: In gel filtration, larger molecules generally elute earlier.

Broadly, the Kd is the concentration at which binding is half-saturated.

Ends that are not written are not given here. * marks the point of attachment. sulfate = O=S(=O)(O)*

B1: glycosulfopeptide-6 (GSP-6) (peptide)
peptide: GQATEY(sulfate)EY(sulfate)LDY(sulfate)DFLPETEPPEML
modifications: also: core-2 O-glycan with sialyl Lewis x on a Thr, position not given here
notes: range 42-63; Synthetic glycosulfopeptide; also called 35SO3-GSP-6; 35SO3-glycosulfopeptide-6
With B1, the Kd was around 350 nM.
